Data: PMC10742460, “Lambda CI Binding to Related Phage Operator Sequences Validates Alignment Algorithm and Highlights the Importance of Overlooked Bonds”
Positions count from the first letter of the chain named.

Assays:
lambda CI repressor [1] = target: T1, lambda CI repressor (Bacteriophage lambda, UniProt P03034 1-237); assay: EMSA; apparent Kd; EMSA: 10 mM HEPES, 150 mM NaCl, pH 7.4; 50 nM DNA, 0.4-40 uM CI; 20 min at room temperature; 10% polyacrylamide gel, 1x TBE pH 8.3, SYBR Safe stain; conditions: protein: recombinant; tags: His-tag, TEV cleavage site with linker (pET 29b+); chain copies: 2; label: none (SYBR Safe stain)
lambda CI repressor [2] = target: T1, lambda CI repressor; assay: EMSA; apparent Kd; text gives error 3.10; EMSA: 10 mM HEPES, 150 mM NaCl, pH 7.4; 50 nM DNA, 0.4-40 uM CI; 20 min at room temperature; 10% polyacrylamide gel, 1x TBE pH 8.3, SYBR Safe stain; conditions: protein: recombinant; tags: His-tag, TEV cleavage site with linker (pET 29b+); chain copies: 2; label: none (SYBR Safe stain)

T1 sequence (P03034 whole entry): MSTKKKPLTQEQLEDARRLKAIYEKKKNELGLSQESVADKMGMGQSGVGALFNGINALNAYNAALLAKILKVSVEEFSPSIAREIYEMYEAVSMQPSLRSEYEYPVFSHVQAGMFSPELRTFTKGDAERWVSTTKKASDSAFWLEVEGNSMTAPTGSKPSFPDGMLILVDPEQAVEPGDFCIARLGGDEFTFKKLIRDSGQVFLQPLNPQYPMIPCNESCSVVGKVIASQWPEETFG

B1: SOL3 (Stx2I OL3) (dsDNA)
DNA 1: GGTTATTATGGGCTTCTTGAATAACAGCTGCAAGTGC
DNA 2: GCACTTGCAGCTGTTATTCAAGAAGCCCATAATAACC
Lambda CI repressor [1]
  Kd: 4.26 ± 0.27 µM

B2: VOR1 (VT2-SA OR1) (dsDNA)
DNA 1: GGTTATTATGGAAGTACATATTGTATTTTGCAAGTGC
DNA 2: GCACTTGCAAAATACAATATGTACTTCCATAATAACC
Lambda CI repressor [1]
  Kd: 5.15 ± 2.39 µM

B3: VOL2 (VT2-SA OL2) (dsDNA)
DNA 1: GGTTATTATGGCAATACAATTTGTTCTATGCAAGTGC
DNA 2: GCACTTGCATAGAACAAATTGTATTGCCATAATAACC
Lambda CI repressor [1]
  Kd: 4.02 ± 0.16 µM

B4: SOL2 (Stx2I OL2) (dsDNA)
DNA 1: GGTTATTATGGTGTAATATTTTCTTACATGCAAGTGC
DNA 2: GCACTTGCATGTAAGAAAATATTACACCATAATAACC
Lambda CI repressor [1]
  Kd: 3.68 ± 0.47 µM

B5: SOR1 (Stx2I OR1) (dsDNA)
DNA 1: GGTTATTATGGTTTCAGTTCAACCATAATGCAAGTGC
DNA 2: GCACTTGCATTATGGTTGAACTGAAACCATAATAACC
Lambda CI repressor [1]
  Kd: 7.27 ± 2.39 µM

B6: SOR2 (Stx2I OR2) (dsDNA)
DNA 1: GGTTATTATGGATGAGTACGATACTAAATGCAAGTGC
DNA 2: GCACTTGCATTTAGTATCGTACTCATCCATAATAACC
Lambda CI repressor [1]
  Kd: 7.67 ± 2.62 µM

B7: LOR2 (lambda OR2) (dsDNA)
DNA 1: GGTTATTATGGTAACACCGTGCGTGTTGTGCAAGTGC
DNA 2: GCACTTGCACAACACGCACGGTGTTACCATAATAACC
Lambda CI repressor [1]
  Kd: 1.55 ± 0.29 µM

B8: SOL1 (Stx2I OL1) (dsDNA)
DNA 1: GGTTATTATGGCAATGATGATTTCATGCTGCAAGTGC
DNA 2: GCACTTGCAGCATGAAATCATCATTGCCATAATAACC
Lambda CI repressor [1]
  Kd: 7.11 ± 1.27 µM

B9: LOR1 (lambda OR1) (dsDNA)
DNA 1: GGTTATTATGGTACCTCTGGCGGTGATATGCAAGTGC
DNA 2: GCACTTGCATATCACCGCCAGAGGTACCATAATAACC
Lambda CI repressor [1]
  Kd: 0.35 ± 0.03 µM

B10: VOL3 (VT2-SA OL3) (dsDNA)
DNA 1: GGTTATTATGGTACAACGCTTTGTATTTTGCAAGTGC
DNA 2: GCACTTGCAAAATACAAAGCGTTGTACCATAATAACC
Lambda CI repressor [1]
  Kd: 3.67 ± 0.1 µM

B11: LOL3 (lambda OL3) (dsDNA)
DNA 1: GGTTATTATGGTATCACCGCAGATGGTTTGCAAGTGC
DNA 2: GCACTTGCAAACCATCTGCGGTGATACCATAATAACC
Lambda CI repressor [1]
  Kd: 1.21 ± 0.08 µM

B12: LOR3 (lambda OR3) (dsDNA)
DNA 1: GGTTATTATGGTATCACCGCAAGGGATATGCAAGTGC
DNA 2: GCACTTGCATATCCCTTGCGGTGATACCATAATAACC
Lambda CI repressor [1]
  Kd: 3.07 ± 1.13 µM

B13: LOL2 (lambda OL2) (dsDNA)
DNA 1: B12 DNA 1 with T12C, T14A, A21C, G24A
DNA 2: B12 DNA 2 with C14T, T17G, A24T, A26G
Lambda CI repressor [1]
  Kd: 1.5 ± 0.17 µM

B14: LOL1 (lambda OL1) (dsDNA)
DNA 1: B12 DNA 1 with A21C, G24T, A26G
DNA 2: B12 DNA 2 with T12C, C14A, T17G
Lambda CI repressor [1]
  Kd: 0.21 ± 0.02 µM

B15: VOR2 (VT2-SA OR2) (dsDNA)
DNA 1: GGTTATTATGGATGCACAATGTGTATTTTGCAAGTGC
DNA 2: GCACTTGCAAAATACACATTGTGCATCCATAATAACC
Lambda CI repressor [1]
  Kd: 6.39 ± 2.75 µM

B16: SOR3 (Stx2I OR3) (dsDNA)
DNA 1: GGTTATTATGGGGGCGAATTCTTTGCGCTGCAAGTGC
DNA 2: GCACTTGCAGCGCAAAGAATTCGCCCCCATAATAACC
Lambda CI repressor [2]
  Kd: 7.68 ± 3.09 µM

B17: VOR3 (VT2-SA OR3) (dsDNA)
DNA 1: GGTTATTATGGTATTACGCTCTGTACTGTGCAAGTGC
DNA 2: GCACTTGCACAGTACAGAGCGTAATACCATAATAACC
Lambda CI repressor [1]
  Kd: 4.41 ± 0.99 µM

B18: VOL1 (VT2-SA OL1) (dsDNA)
DNA 1: B17 DNA 1 with T14G, C19A, C21A, G28T
DNA 2: B17 DNA 2 with C10A, G17T, G19T, A24C
Lambda CI repressor [1]
  Kd: 5.37 ± 1.16 µM
